# Reference: article PMC4339808
# Target: 70S ribosome (vacant) (E. coli MRE600)
row,Substance,"KM of the 70S ribosome-stimulated multiple turnover GTPase activity (0.01 uM protein, 100 uM GTP, 0 to 8 uM 70S)"
1,EF4 ΔA494 (from UniProt P60785 1-494) (domain or fragment),36 µM
2,EF4 ΔG555 (from UniProt P60785 1-555) (domain or fragment),7 µM
3,EF4 ΔP520 (from UniProt P60785 1-520) (domain or fragment),10 µM
4,"Elongation Factor 4 (EF4/LepA), wild type (from UniProt P60785 1-599) (enzyme)",0.32 µM
